The values below come from patent US20240390418A1 (MINERVA BIOTECHNOLOGIES, published 2024).

First the molecules themselves.
B8: PSMGFR peptide (peptide)
peptide: GTINVHDVETQFNQYKTEAASRYNLTISDVSVSDVPFPFSAQSGA
notes: also called MUC1* peptide

In assay [1] the target is T1, C-10 peptide.
T1 construct: also called PSMGFR C-10; PSMGFR minus 10 amino acids from the C-terminus
T1 peptide: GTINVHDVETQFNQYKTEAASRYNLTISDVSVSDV
Briefly: peptide ELISA. (An ELISA detects its analyte on a solid surface through an enzyme-linked reagent.)

The target of assay [2] is B8. Description: peptide ELISA, told in tissue legend.
Assay [3] has as its target T2, N-10 peptide.
T2 construct: also called PSMGFR N-10; PSMGFR minus 10 amino acids from the N-terminus
T2 peptide: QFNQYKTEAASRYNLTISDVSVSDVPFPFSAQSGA
Briefly: peptide ELISA, told in tissue legend.

The target in assay [4] is B8. Description: peptide binding, told in Western blot legend. (Immunoblotting shows a protein as a band on a membrane.)
Another assay deals with T3, N+9/C-9 peptide.
T3 peptide: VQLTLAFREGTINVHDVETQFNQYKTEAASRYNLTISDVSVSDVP
Briefly: ELISA, peptide on plate (FIG. 64).

Assay [5] concerns the target T2, N-10 peptide. Description: ELISA, peptide on plate (FIG. 64).
Assay [6] deals with T1, C-10 peptide. Description: ELISA, peptide on plate (FIG. 201C). On the procedure:
(§1) FIG. 201A-201C show graphs of ELISA assays to determine the binding of another set of antibodies generated by immunizing animals with the PSMGFR peptide. […] F3, B12, B2, B7, B9, 8C7F3 and H11 all bound to the PSMGFR peptide and to the N-10 peptide.
(§2) This same ELISA assay was performed on the antibodies of the invention (FIGS. 64-66 and FIG. 201). Note that only 20A10 exactly matches the binding profile of MNC2 and MNE6. 25E6, 28F9 and 18G12 are all able to bind to the N-10 peptide. 18B4 is the only antibody raised against the PSMGFR peptide that requires the 10 most N-terminal amino acids of the peptide. The color of the bars for each antibody in the ELISA graph are color coded to match the deductive cognate sequence, or a portion thereof, of that antibody. In addition, another set of antibodies was assayed by ELISA (FIG. 201). Of this set, B12, B2, B7, B9, 8C7F3, and H11 bound to the PSMGFR peptide, bound to the N-10 peptide, but not to the C-10 peptide (FIG. 201). Although these antibodies were raised against the N+20/C-27 peptide, all but one, 45C11, still bind to the PSMGFR peptide, albeit at the N-terminal portion of PSMGFR.

Assay [7] deals with T2, N-10 peptide. Briefly: ELISA, peptide on plate (FIG. 201B). As for the experimental part:
as §1, §2

Assay [8] has as its target B8. Description: ELISA, peptide on plate (FIG. 201A). As for the experimental part: as §1, §2
In the next assay the target is T4, N-19 peptide.
T4 peptide: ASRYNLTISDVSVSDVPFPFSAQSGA
Description: ELISA, peptide on plate (FIG. 69).

The next assay concerns the target T5, N-26 peptide.
T5 peptide: ISDVSVSDVPFPFSAQSGA
Briefly: ELISA, peptide on plate (FIG. 69).

In the next assay the target is T6, N-19/C-5 peptide.
T6 peptide: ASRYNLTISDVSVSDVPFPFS
Briefly: ELISA, peptide on plate (FIG. 69).

The target of the next assay is T7, N-30 peptide.
T7 peptide: SVSDVPFPFSAQSGA
Description: ELISA, peptide on plate (FIG. 69).

The next assay deals with T8, N-10/C-5 peptide.
T8 peptide: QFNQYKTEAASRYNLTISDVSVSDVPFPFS
Description: ELISA, peptide on plate (FIG. 69).

Assay [9] has as its target T2, N-10 peptide. Briefly: ELISA, peptide on plate (FIG. 69).
Assay [10] concerns the target B8. Description: ELISA, PSMGFR peptide on plate (FIG. 5). As for the experimental part: Humanized MNC2 scFv is then incubated with the surface, washed and detected according to standard methods.
In a further assay the target is T9, NME7AB (Homo sapiens (Human), UniProt Q9Y5B8 92-376).
T9 construct: NME7A in the text appears to be NME7AB; also called NM23-H7; NME7A
T9 sequence: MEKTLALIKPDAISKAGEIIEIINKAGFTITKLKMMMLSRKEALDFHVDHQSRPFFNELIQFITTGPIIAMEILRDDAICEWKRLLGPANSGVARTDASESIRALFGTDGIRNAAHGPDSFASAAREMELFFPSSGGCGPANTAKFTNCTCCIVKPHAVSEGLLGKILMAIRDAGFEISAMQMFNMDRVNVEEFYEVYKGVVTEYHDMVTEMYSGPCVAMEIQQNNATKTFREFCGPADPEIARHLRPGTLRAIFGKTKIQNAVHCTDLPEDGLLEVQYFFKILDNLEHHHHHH
Briefly: ELISA, peptide on plate (FIG. 2A). On the procedure: FIGS. 2A-2I show results of ELISA assays. MUC1* peptides PSMGFR, PSMGFR minus 10 amino acids from the N-terminus aka N-10, or PSMGFR minus 10 amino acids from the C-terminus, aka C-10 are immobilized on the plate and the following are assayed for binding: NME7-AB (FIG. 2A), MNC2 monoclonal antibody (FIG. 2B), MNE6 monoclonal antibody (FIG. 2C), or dimeric NME1 (FIG. 2D). […] MUC1* peptides PSMGFR minus 10 amino acids from the N-terminus aka N-10, or PSMGFR minus 10 amino acids from the C-terminus, aka C-10, are immobilized on the plate and the following are assayed for binding: MNC3 (FIG. 2E) and MNC8 (FIG. 2F).

Assay [11] concerns the target T1, C-10 peptide. Description: ELISA, peptide on plate (FIG. 64).

B1: monoclonal antibody 3C2B1 (antibody, V domains shown)
VH: EVMLVESGGGLVKPGGSLKLSCAASGITFSTYTMSWVRQTPEKRLEWVATISTGGDKTYYSDSVKGRFTISRDNAKNNLYLQMSSLRSEDTALYYCARGTTAMYYYAMDYWGQGTSVTVSS
VL: DIVLTQSPASLAVSLGQRATISCRASKSISTSDYNYIHWYQQKPGQPPKLLIYLASNLESGVPARFSGSGSGTDFTLNIHPVEEEDAATYYCQHSRELPLTFGAGTKLELK
notes: Raised against PSMGFR; also called MN3C2B1; anti-PSMGFR antibody 3C2B1
With B1, the binding result in the assay with C-10 peptide [1] is reported as “no binding”; with PSMGFR peptide [2] it was “binds”; in the assay with N-10 peptide [3], “binds”.

B2: monoclonal antibody 28F9 (antibody, V domains shown)
VH: QVQLQQPGAELVQPGASVKLSCKASGYTFTGYFLYWVKQRPGHGLEWIGGIHPSNGDTDFNEKFKNKATLTVDISSSTAYMQLSSLTSEDSAVYYCTLLIGVYWGQGTTLTVSS
VL: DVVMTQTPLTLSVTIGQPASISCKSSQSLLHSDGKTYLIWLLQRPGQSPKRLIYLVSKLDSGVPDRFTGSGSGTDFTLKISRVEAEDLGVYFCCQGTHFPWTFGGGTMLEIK
notes: Raised against PSMGFR; also called MN28F9; anti-PSMGFR antibody 28F9
Regarding B2, the binding result with C-10 peptide [1], in the assay with PSMGFR peptide [4], with N+9/C-9 peptide and with N-10 peptide [5] was “binds” each time.

B3: monoclonal antibody 18G12 (antibody, V domains shown)
VH: QVQLQQSGAELVKPGASVKLSCKASGYTFTGYFLYWVKQRPGQGLEWIGGINPDNGGIDFNEKFRNKATLTVDKSSSTAYMQLSSLTSEDSAVYYCTLLIGNYWGQGTTLTVSS
VL: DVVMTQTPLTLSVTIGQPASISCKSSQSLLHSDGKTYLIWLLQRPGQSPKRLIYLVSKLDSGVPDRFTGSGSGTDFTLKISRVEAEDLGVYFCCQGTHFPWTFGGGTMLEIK
notes: Raised against PSMGFR; also called MN18G12; anti-PSMGFR antibody 18G12
For B3, the binding result with C-10 peptide [1], with PSMGFR peptide [4], in the assay with N+9/C-9 peptide and with N-10 peptide [5] was “binds” in each case.

B4: monoclonal antibody B2 (antibody, V domains shown)
VH: EVVLVESGGGLVEPGGSLKLSCVASGFAFSTFAMSWIRQTPEKRLEWVAAISNGGGYTYYPDTLKGRFSISRDNAKNTLYLQMSSLRSEDTAVYYCARRYYDLYFDLWGRGTSLIVSS
VL: DILMTQTPLSLPVSLGDQASISCRSSQNIVHSNGNTYLEWYLQKPGQSPKLLIYKVSNRFSGVPDRFSGSGSGTDFTLKISRVEAEDLGVYYCFQDSHVPLTFGAGTRLELK
notes: Raised against PSMGFR
B4: the binding result in the assay with C-10 peptide [6] is “no binding”; with N-10 peptide [7], “binds”; in the assay with PSMGFR peptide [8], “binds”.

B5: monoclonal antibody B7 (antibody, V domains shown)
VH: EVQVVESGGDLVKPGGSLKLSCAASGFTFSRYGMSWVRQTPDKRLEWVATISSGGTYIYYPDSVKGRFTISRDNAKNTLYLQMSSLKSEDTAMYYCARDNYGSSYDYAMDYWGQGTSVTVSS
VL: DVLMTQTPLSLPVSLGDQASISCRSSQTIVHSNGNTYLEWYLQKPGQSPKLLIYKVSNRFSGVPDRFSGSGSGTDFTLKISRVEAEDLGVYYCFQDSHVPLTFGAGTKLELK
notes: Raised against PSMGFR
For the molecule B5, the binding result with C-10 peptide [6] is given as “no binding”; in the assay with N-10 peptide [7], “binds”; with PSMGFR peptide [8], “binds”.

B6: monoclonal antibody 17H6 (antibody, V domains shown)
VH: EVKLVESGGGLVQPGGSLRLSCATSGFTFTDYYMSWVRQPPRKALEWLGFIRNKANGYTAEYSASVKGRFTISRDVSQNLLYLQMNILRAEDSATYYCAKDYYGSNPAWFAYWGQGTLVTVSA
VL: DILMTQTPLSLPVSLGDQASISCRSSQSIVHSSGNTFLEWYLQKPGQSPKLLIYKVSNRFSGVPDRFSGSGSGIDFTLKISRVEAEDLGVYYCFQGSHVPFTFGSGTKLEIK
notes: Raised against the N+9/C-9 peptide; also called N+9/C-9 antibody 17H6
Turning to B6, the binding result with N-19 peptide, with N-26 peptide, in the assay with N-19/C-5 peptide, in the assay with N-30 peptide, in the assay with N-10/C-5 peptide and in the assay with N-10 peptide [9] was “no binding” throughout.

B7: humanized MNC2 scFv (scFv, V domains shown)
VH: EVQLVESGGGLVKPGGSLRLSCAASGFTFSGYAMSWVRQAPGKGLEWVSTISSGGTYIYYPDSVKGRFTISRDNAKNSLYLQMNSLRAEDTAVYYCARLGGDNYYEYFDVWGKGTTVTVSS
VL: DIVLTQSPASLAVSPGQRATITCRASKSVSTSGYSYMHWYQQKPGQPPKLLIYLASNLESGVPARFSGSGSGTDFTLTINPVEANDTANYYCQHSRELPFTFGGGTKVEIKR
notes: also called huMNC2scFv; huMNC2 scFv
The molecule B7 returned an EC50 with PSMGFR peptide [10] of approximately 333 nM.
On to B8, for which, in the assay with NME7AB, the binding result is on record as “binds”.

B9: monoclonal antibody 20A10 (antibody, V domains shown)
VH: EVMLVESGGGLVKPGGSLKLSCAASGFTFSTYAMSWIRQTPEKRLEWVASIGRAGSTYYSDSVKGRFTISRDNVRNILYLQMSSLRSEDTAMYYCARGPIYNDYDEFAYWGQGTLVTVSA
VL: NIMMTQSPSSLAVSAGEKVTMSCKSSQSVLYSSNQKNYLAWYQQKPGQSPKLLIYWASTRESGVPDRFTGSGSGTDFTLTISSVQAEDLAVYYCHQYLSSLTFGAGTKLELK
notes: Raised against PSMGFR; also called MN20A10; anti-PSMGFR antibody 20A10
B9: the binding result in the assay with PSMGFR peptide [2] is reported as “binds”; with N-10 peptide [3], “binds”; with N+9/C-9 peptide it was “no binding”; with C-10 peptide [11], “no binding”.

B10: monoclonal antibody B12 (antibody, V domains shown)
VH: QAQLKESGPGLVAPSQSLSITCTVSGFSLTSYGVHWVRQPPGKGLEWLGVIWPGGSTNYNSTLMSRMRIIKDNSKSQVFLKMNSLQIDDTAMYYCARDRTPRVGAWFAYWGQGTLVTVSA
VL: IIVLTQSPASLAVSLGQRATISCRASESVATYGNNFMQWYQQKPGQPPKLLIYLASTLDSGVPARFSGSGSRTDFTLTIDPVEADDAATYYCQQNNEDPPTFGGGTKLEIK
notes: Raised against PSMGFR
For the molecule B10, the binding result with C-10 peptide [6] was “no binding”; in the assay with N-10 peptide [7] it was “binds”; with PSMGFR peptide [8], “binds”.

B11: monoclonal antibody 8C7F3 (antibody, V domains shown)
VH: EVMLVESGGGLVKPGGSLKLSCAASGFTFSTYAMSWVRQTPEKRLEWVAAISNGGGYTYYPDSLKGRFTISRDNAKNTLYLQMSSLRSEDTATYYCARRYYDHYFDYWGQGTALTVSS
VL: IIVLTQSPASLAVSLGQRATISCRASESVATYGNNFMQWYQQKPGQPPKLLIYLASTLDSGVPARFSGSGSRTDFTLTIDPVEADDAATYYCQQNNEDPPTFGGGTKLEIK
notes: Raised against PSMGFR
Take B11: the binding result with C-10 peptide [6] is “no binding”; with N-10 peptide [7] it was “binds”; with PSMGFR peptide [8], “binds”.

B12: monoclonal antibody B9 (antibody, V domains shown)
VH: EVQVVESGGDLVKPGGSLKLSCAASGFTFSRYGMSWVRQTPDKRLEWVATISSGGTYIYYPDSVKGRFTISRDNAKNTLYLQMSSLKSEDTAMYYCARDNYGSSYDYAMDYWGQGTSVTVSS
VL: QIVLTQSPAIMSASPGEEVTLTCSASSSVSYMHWFQQRPGTSPKLWIYTTSNLASGVPARFSGSGSGTSYSLTISRMEAEDAATYYCQQRSSYPFTFGSGTKLEIK
notes: Raised against PSMGFR
B12: the binding result with C-10 peptide [6] is listed as “no binding”; with N-10 peptide [7] it was “binds”; in the assay with PSMGFR peptide [8] it was “binds”.

As a reminder, the EC50 is the midpoint of the concentration-response curve.
